Legend:
[1] = Luciferase activity of purified RLuc mutants (light output integrated over 10 s, luminometer); type: biochemical; settings: relative to native enzyme; for Activity (relative to RLuc) bc: benzyl-coelenterazine; for Activity (relative to RLuc) bdc: bisdeoxycoelenterazine; for Activity (relative to RLuc) cp: coelenterazine-cp; for Activity (relative to RLuc) n: coelenterazine-n; for Activity (relative to RLuc) native: native coelenterazine
Excerpt: Luminometer Calibration: Light measurements were made using a Turner 20/20 and later a Turner 20/20n luminometer (Turner Designs, Sunnyvale, Calif.). The luminometers were calibrated to absolute units (photons/s) using the luminol light standard performed in dimethyl sulfoxide (DMSO). No corrections were applied for the spectral sensitivity of the luminometer, as the spectral peak of luminol chemiluminescence in DMSO (486 nm) is close to the spectral peak of Renilla Luciferase bioluminescence (482 nm).
Characterization of Renilla Luciferase Mutants: Luciferase activity was measured by adding 1 μl of sample (diluted as necessary in EB containing 1% HSA) to 100 μl room temperature 100 mM sodium phosphate buffer (pH 7), manually adding 1 μl of 0.5 μg/μl coelenterazine or analog, manually mixing, and reading for 10 s in a luminometer. The time between the addition of the luciferin and the start of measurement was approximately 4 s.

[2] = Serum stability in mouse serum at 37° C.; type: in vitro ADME; settings: mouse serum, 37° C., mono-exponential fit
Protocol: (§1) Serum stability measurements were done by mixing 0.5 μl dilute Luciferase with either 20 μl mouse serum or 50 μl rat serum (Equitech-Bio, Kerrville, Tex.) placing the sample in a 37° C. incubator, and removing aliquots for activity testing. To calculate serum half-lives, mono-exponential decay curves were fit to the serum stability data using a Nelder/Mead Simplex non-linear least squares minimization algorithm provided by the Octave numerical programming language. Emission spectra at ambient temperature were measured using a Triax 320 (Horiba Jobin Yvon, Edison, N.J.), which incorporates an optical grating device with a liquid N2 cooled CCD detector.

[3] = Serum stability in rat serum at 37° C.; type: in vitro ADME; settings: mono-exponential fit
Protocol: as §1

[4] = Bioluminescence emission spectra; type: physicochemical; settings: emission spectrum with native coelenterazine
Protocol: as §1

[5] = Quantum yield measurements; type: biochemical
Protocol: For quantum yield measurements, separate 1 μl drops of protein (about 2 pm) and substrate (0.2 pm) were placed in a tube, 100 μl of 100 mM sodium phosphate buffer (pH 7) was injected by the luminometer to mix, and the total light output was integrated (generally 5-10 min). For coelenterazine-n, the protein amount was increased 10 fold and the acquisition time lengthened to insure the reaction approached completion.

Activity (relative to RLuc) bc [1]	Activity (relative to RLuc) bdc [1]	Activity (relative to RLuc) cp [1]	Activity (relative to RLuc) n [1]	Activity (relative to RLuc) native [1]	Molecule	Serum τ1/2 (h) mouse [2]	Serum τ1/2 (h) rat [3]	Wavelength (nm) mean [4]	Wavelength (nm) peak [4]	Quantum Yield (%) bc ([5]; benzyl-coelenterazine)	Quantum Yield (%) bdc ([5]; bisdeoxycoelenterazine)	Quantum Yield (%) cp ([5]; coelenterazine-cp)	Quantum Yield (%) n ([5]; coelenterazine-n)	Quantum Yield (%) native ([5]; native coelenterazine)
1.2	2.4	0.58	1.4	1.7	A55T/C124A: RLuc mutant A55T/C124A (protein) MASKVYDPEQRKRMITGPQWWARCKQMNVLDSFINYYDSEKHAENAVIFLHGNATSSYLWRHVVPHIEPVARCIIPDLIGMGKSGKSGNGSYRLLDHYKYLTAWFELLNLPKKIIFVGHDWGAALAFHYSYEHQDKIKAIVHAESVVDVIESWDEWPDIEEDIALIKSEEGEKMVLENNFFVETMLPSKIMRKLEPEEFAAYLEPFKEKGEVRRPTLSWPREIPLVKGGKPDVVQIVRNYNAYLRASDDLPKMFIESDPGFFSNAIVEGAKKFPNTEFVKVKGLHFSQEDAPDEMGKYIKSFVERVLKNEQ	30 h	29 h	504 nm	486 nm	3.9 ± 0.1%	(1.0 ± 0.9) × 10^−3%	4.5 ± 0.1%	5.7 ± 0.1%	5.7 ± 0.2%
0.83	0.86	0.57	0.72	1.0	C124A/M295I: RLuc mutant C124A/M295I (protein) MASKVYDPEQRKRMITGPQWWARCKQMNVLDSFINYYDSEKHAENAVIFLHGNAASSYLWRHVVPHIEPVARCIIPDLIGMGKSGKSGNGSYRLLDHYKYLTAWFELLNLPKKIIFVGHDWGAALAFHYSYEHQDKIKAIVHAESVVDVIESWDEWPDIEEDIALIKSEEGEKMVLENNFFVETMLPSKIMRKLEPEEFAAYLEPFKEKGEVRRPTLSWPREIPLVKGGKPDVVQIVRNYNAYLRASDDLPKMFIESDPGFFSNAIVEGAKKFPNTEFVKVKGLHFSQEDAPDEIGKYIKSFVERVLKNEQ	5.0 h	4.9 h	497 nm	480 nm					
1.0	1.3	1.1	1.0	1.1	C124A/K300A: RLuc mutant C124A/K300A (protein) MASKVYDPEQRKRMITGPQWWARCKQMNVLDSFINYYDSEKHAENAVIFLHGNAASSYLWRHVVPHIEPVARCIIPDLIGMGKSGKSGNGSYRLLDHYKYLTAWFELLNLPKKIIFVGHDWGAALAFHYSYEHQDKIKAIVHAESVVDVIESWDEWPDIEEDIALIKSEEGEKMVLENNFFVETMLPSKIMRKLEPEEFAAYLEPFKEKGEVRRPTLSWPREIPLVKGGKPDVVQIVRNYNAYLRASDDLPKMFIESDPGFFSNAIVEGAKKFPNTEFVKVKGLHFSQEDAPDEMGKYIASFVERVLKNEQ	3.5 h	3.9 h	497 nm	481 nm					
